This passage reports Kd results from PMC7849316, “Tyrosine phosphorylation regulates hnRNPA2 granule protein partitioning and reduces neurodegeneration” (The EMBO Journal, 2020).

This experiment concerns the target T1, ch‐TOG (CKAP5) TOG domain 1 (TOG D1, residues 1–250) (UniProt Q14008 1-250, AlexaFluor 555 or 405 (NHS ester) on ~1% of the protein in the droplet assays; 2H 15N labeled for the PRE experiments).
T1 construct: microtubule-associated protein ch-TOG (CKAP5), TOG domain 1, residues 1–250; also called TOG domain 1 (D1); source: E. coli BL21 Star (DE3), purified (HisTrap, Superdex 75, TEV cleavage, second HisTrap)
The experiment is described as follows: NMR paramagnetic relaxation enhancement (PRE); TROSY-based 1HN R2 at 850 MHz, 25°C; NMR-invisible hnRNPA2 LC with a paramagnetic label at S285C or S329C mixed with 2H 15N TOG D1; paramagnetic against diamagnetic samples. The note with it: both partners purified.

Residue numbers refer to the chain shown, from its start. Names and notes keep the numbering of the source. A value given as a limit tells only on which side of the number the result lay.

T1 sequence (Q14008 1-250): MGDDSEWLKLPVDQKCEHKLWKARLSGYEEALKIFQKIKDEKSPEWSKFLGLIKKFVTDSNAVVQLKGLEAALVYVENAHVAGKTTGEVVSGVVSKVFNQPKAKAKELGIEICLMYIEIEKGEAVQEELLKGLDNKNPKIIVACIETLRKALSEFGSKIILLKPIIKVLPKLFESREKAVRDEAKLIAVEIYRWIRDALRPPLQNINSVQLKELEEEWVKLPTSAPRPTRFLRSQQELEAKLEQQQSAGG

B1: hnRNPA2 LC S285C with a paramagnetic label (MTSL) at the engineered cysteine (domain or fragment, human, UniProt P22626-2 190-341, looked up)
chain: GRGGNFGFGDSRGGGGNFGPGPGSNFRGGSDGYGSGRGFGDGYNGYGGGPGGGNFGGSPGYGGGRGGYGGGGPGYGNQGGGYGGGYDNYGGGNYGCGNYNDFGNYNQQPSNYGPMKSGNFGGSRNMGGPYGGGNYGPGGSGGSGGYGGRSRY
modifications: small (~120 Da) paramagnetic label (MTSL) at the engineered cysteine 285
notes: hnRNPA2 low complexity domain, human, residues 190–341; Purified and labeled as described in Ryan et al, 2018; source: E. coli BL21 Star (DE3), purified from inclusion bodies (His-tag purification), MTSL-labeled
A word on the Kd: it is the equilibrium constant for the complex coming apart. In the case of B1, the Kd is above 100 µM.

B2: hnRNPA2 LC S329C with a paramagnetic label (MTSL) at the engineered cysteine (domain or fragment, human, UniProt P22626-2 190-341, looked up)
chain: B1 chain with C96S, S140C
modifications: small (~120 Da) paramagnetic label (MTSL) at the engineered cysteine 329
notes: as for B1
As to B2, the dissociation constant Kd was above 100 µM.
